# Biological target: ORAI1 (Homo sapiens, UniProt Q96D31)
# Assay: Fura-2 Ca^2+ flux assay, sec6-4 secretory vesicles with ORAI1
# Format: biochemical
# Set-up: the ORAI functional fragment is ORAI1 (65-301), ORAI1 (65-87), or full length ORAI1; made in house; host or cells: S. cerevisiae NY17 (sec6-4), isolated secretory vesicles, vector pBEVY-GU
# Protocol: It was next asked whether STIM-ORAI protein-protein interaction is sufficient to open the ORAI Ca^2+ channel. Vesicles obtained from S cerevisiae expressing ORAI were incubated under conditions where Fura-2 was the principal Ca^2+ buffer in the extravesicular solution in order to monitor Ca^2+ efflux (Meyer, T., et al., Biochemistry 29, 32-37 (1990)).
# Vesicles carrying ORAI 1 were isolated from S cerevisiae strain NY1 7 according to a standard protocol (Coury, L. A., et al., Methods Enzymol 306, 169-186 (1999); Nakamoto, R. K., et al., J Biol Chem 266, 7940-7949 (1991)). Efflux of Ca^2+ elicited by STIM1^CT fragments was detected by suspending the vesicles in a buffer containing Fura-2 as principal Ca^2+ buffer, and monitoring the Fura-2 fluorescence excitation spectrum (Meyer, T., et al., Biochemistry 29, 32-37 (1990)). As a complementary approach, ORAI 1 was coexpressed with a Ca^2+ sensor cameleon D3 cpV or cameleon D4 cpV53 that was targeted to the vesicles, and changes in intravesicular [Ca^2+] were detected as changes in FRET between CFP and YFP of the sensor.
# S cerevisiae strain NY17 featuring the temperature-sensitive sec6-4 mutation was used for protein expression and purification of secretory vesicles as described (Nakamoto, R. K., et al., J Biol Chem 266, 7940-7949 (1991); Coury, L. A., et al., Methods Enzymol 306, 169-186 (1999)). Cells were grown to midlog phase at 25° C. in uracil-deficient synthetic complete medium containing glucose, which was subsequently exchanged for galactose to induce transgene expression over a period of 8 hours. The temperature was then switched to 37° C. for 3 hours to force intracellular accumulation of secretory vesicles. Cells were collected by centrifugation at 4,000×g for 5 min at 4° C., washed once in ice-cold water, resuspended at a concentration of 50-60 OD600 units/mL in 10 mM DTT, 100 mM Tris pH 9.4, and shaken gently at room temperature for 10 min. Cells were pelleted and resuspended at 50-60 OD600 units/mL in spheroplast buffer (1.4 M sorbitol, 50 mM K2HPO4 pH 7.5, 10 mM NaN3, 40 mM β-mercaptoethanol) containing Zymolyase 20T (50 units per g of yeast wet weight) and incubated for up to 1 h at 37° C. Spheroplasts were harvested at 3,000×g for 5 min at 4° C., resuspended in spheroplast buffer containing 10 mM MgCl2 and 1 mg/ml Concanavalin A at a density corresponding to 50 OD600 units/mL of the starting culture, and gently shaken at 4° C. for 15 min. […] Myc-tagged ORAI1 was detected in Western blots using the murine anti-Myc monoclonal antibody 9E10. […]
# [1] = STIM 1 cytoplasmic fragments 2 μM
# Sequence of ORAI1 (Q96D31 2-301): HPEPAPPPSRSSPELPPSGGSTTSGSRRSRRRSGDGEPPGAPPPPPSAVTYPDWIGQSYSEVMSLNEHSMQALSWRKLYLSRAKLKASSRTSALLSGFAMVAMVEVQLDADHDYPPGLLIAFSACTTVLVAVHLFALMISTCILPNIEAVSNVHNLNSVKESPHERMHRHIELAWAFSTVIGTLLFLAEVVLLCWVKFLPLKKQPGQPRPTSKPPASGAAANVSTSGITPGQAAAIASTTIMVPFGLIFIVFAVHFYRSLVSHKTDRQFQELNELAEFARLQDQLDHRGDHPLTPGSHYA
Compound,Ca^2+ efflux from vesicles with ORAI (Fura-2 excitation spectrum) [1],Ca^2+ efflux from vesicles with ORAI (Fura-2 excitation spectrum) (ionomycin 20 μM)
"STIM1^CT: cytoplasmic region of STIM1, mouse residues 233-685, His-tagged recombinant protein expressed in E coli",elicited efflux of Ca^2+,
"C[C@H](CCC(=O)O)C[C@H](C)C[C@H](C)C(=O)/C=C(\O)[C@H](C)C[C@H](C)C/C=C/[C@@H](C)[C@@H](O)[C@@H](C)[C@@H](O)C[C@@H]1CC[C@@](C)([C@H]2CC[C@@](C)([C@@H](C)O)O2)O1 [ionomycin, reference compound]",,release of Ca^2+ to the extravesicular solution
"STIM1 (233-498): truncated mouse STIM1 cytoplasmic fragment, residues 233-498, His-tagged recombinant protein",elicited efflux of Ca^2+,
"STIM1 (233-463): truncated mouse STIM1 cytoplasmic fragment, residues 233-463, His-tagged recombinant protein",had little effect,

# — US20120264231A1, “ASSAY FOR ORAI CALCIUM CHANNEL REGULATORS” (IMMUNE DISEASE INSTITUTE, INC., priority 2009, published 2012)
